In PMC4121272, “Two β-Galactosidases from the Human Isolate Bifidobacterium breve DSM 20213: Molecular Cloning and Expression, Biochemical Characterization and Synthesis of Galacto-Oligosaccharides” (PLoS ONE, 2014) one finds stoichiometry N data, which are given here for two substances.

For assay [1], the target named is β-galactosidase β-gal II from Bifidobacterium breve DSM 20213 (Bifidobacterium breve DSM 20213). In words: SEC-MALS; Superdex S200 10/300 GL; 20 mM Tris pH 7.5, 150 mM NaCl, 1 mM β-mercaptoethanol, 5 mM EDTA; room temperature; 50 µL injected at 2.5 mg/mL; on-line MALLS and refractive index.
Assay [2] deals with β-galactosidase β-gal I from Bifidobacterium breve DSM 20213 (Bifidobacterium breve DSM 20213). The assay is described as above.

The substance “β-galactosidase β-gal II from Bifidobacterium breve DSM 20213 (enzyme)” returned a stoichiometry N in assay [1] of 2.
In assay [2], “β-galactosidase β-gal I from Bifidobacterium breve DSM 20213 (enzyme)” displayed a stoichiometry N of 2.
